Results published in the RNAGym collection of RNA variant scans (doi:10.7554/elife.80360).

B1: CPEB3 Ribozyme (parent)
chain: GGGGGCCACAGCAGAAGCGUUCACGUCGCGGCCCCUGUCAGAUUCUGGUGAAUCUGCGAAUUCUGCUGU

Variants of: B1
Test: self-cleavage, relative activity (ratio to wild type); higher = more cleavage; co-transcriptional

Variant | self-cleavage
G30C U46A | 0.706
G30C U46C | 0.613
C29U C35G | 0.237
C29U C35A | 0.186
G31A U64C | 0.757
G31A U64A | 0.511
G30C U53A | 0.437
G30A U36G | 0.166
G30A U36C | 0.449
G30U U69C | 0.865
G30U U69G | 0.792
G30A A60G | 0.395
G30A A60U | 0.367
C29U G30A | 0.283
C29U G68C | 0.571
C29G C33U | 0.558
G28U U62C | 0.127
G30C U61A | 0.258
G30C U61C | 0.242
G31C C32G | 0.249
C29U U61C | 0.183
G31C C35G | 0.141
C29A U44C | 0.515
C29A U44G | 0.521

Variant | self-cleavage
G30A G31A | 0.365
G30A G31U | 0.215
G30A A51C | 0.718
C29G C34U | 0.495
C29G C34A | 0.227
G31A C32G | 0.259
G30A G50U | 0.856
G28U G56U | 0.137
G28U G56A | 0.14
G28U G56C | 0.163
C29G A52C | 0.467
G30A G65U | 0.436
C29U C63G | 0.198
C29U C63A | 0.176
C29U A59U | 0.232
G30C C54A | 0.346
G30C U44A | 0.594
G30C U44G | 0.549
G30C U44C | 0.466
C29G U67C | 0.47
C29G U67A | 0.517
C29G U67G | 0.482
G31A C57G | 0.254
C29G G31C | 0.13

Variant | self-cleavage
G28U U55G | 0.168
G30C C45G | 0.578
G28U G50U | 0.165
C29G A42C | 0.347
G31C A42C | 0.227
G30A U38A | 0.621
C29U C32A | 0.295
G30A C57A | 0.258
G30A C57G | 0.247
G30C C33G | 0.302
G30C C33A | 0.248
G28U G65U | 0.2
G28U G65A | 0.146
C29U G48C | 0.61
G31A G41A | 0.525
G30A U44G | 0.579
G30U G65A | 0.203
G30A C39A | 0.362
G30A C35U | 0.533
G30A C35G | 0.186
C29G G41U | 0.21
C29G G41C | 0.173
G30C G65A | 0.459
G30C G65U | 0.371

Variant | self-cleavage
C29G U61G | 0.348
C29G U61C | 0.221
G30U C57G | 0.186
G31A C39A | 0.494
G30U U64C | 0.353
C29U G31C | 0.158
C29U C66G | 0.206
G28U U69C | 0.235
G28U U69A | 0.183
G30C G37U | 0.175
G30C G37C | 0.204
G30C G37A | 0.146
G31C C54U | 0.308
G31A C33G | 0.282
C29A U55G | 0.323
C29A C32A | 0.297
G31A C66A | 0.7
G31A C66U | 0.913
G31A C35A | 0.232
G31A C35U | 0.522
G30C C32G | 0.225
G30C C32U | 0.636
C29U A51U | 0.432
C29U A51C | 0.356

Variant | self-cleavage
C29A U46C | 0.68
C29A U46A | 0.845
G31A G48A | 0.945
G31A G48C | 0.9
G30C U36C | 0.273
G30A G48A | 0.951
C29G U43A | 0.186
C29G U43C | 0.428
G30U C63U | 0.279
G28U U53C | 0.157
C29A G58U | 0.795
C29A G58C | 0.685
G30U G50C | 0.294
G30U G50U | 0.47
G30U G50A | 0.335
G30C C35U | 0.398
G30C C35A | 0.254
G30U G47C | 0.395
G30U G47A | 0.436
C29G U44G | 0.361
G30U A40C | 0.192
G30U A40U | 0.214
G28U U44C | 0.181
G28U U44A | 0.135

Variant | self-cleavage
C29A G56C | 0.297
C29A G56A | 0.492
C29A G56U | 0.367
C29G U46C | 0.473
G30A C66A | 0.559
G31A U55A | 0.662
G31A U55C | 0.547
G31A U55G | 0.569
G30A C63G | 0.483
G30A C63U | 0.839
C29G C39U | 0.251
C29G C39G | 0.267
G31C C34A | 0.341
G31C G41U | 0.217
C29G G30U | 0.219
C29U U43A | 0.171
C29U U43G | 0.168
G30U G56U | 0.231
G31A U38G | 0.245
G31A U38A | 0.726
G30C G48U | 0.706
C29A A60G | 0.334
C29A A60C | 0.307
G28U G48U | 0.198

Variant | self-cleavage
G28U G48C | 0.169
G31A G58U | 0.974
G31A G58C | 0.812
C29G A59G | 0.675
G30A A59G | 0.708
G30A A59C | 0.275
G30A C34G | 0.278
G30A C34A | 0.286
C29U U53G | 0.264
C29U U53C | 0.143
C29U U53A | 0.267
G31A U69C | 1.03
G31A U69A | 0.991
G30U C34A | 0.259
G31A A42C | 0.601
G30U A60G | 0.176
C29G U36C | 0.286
G30C U43A | 0.438
C29A U36G | 0.179
C29G C66G | 0.369
C29A U61C | 0.374
C29A U61G | 0.613
C29G U69G | 0.703
